From patent CN113583112A

What was measured:
AAVXL32.1蛋白衣壳 [1] = assay: BLI (Fortebio), mAb002 2 ug/ml on protein G biosensor, antigen at 0.1406 nM in PBS
AAVXL32.1蛋白衣壳 [2] = assay: BLI (Fortebio), mAb002 2 ug/ml on protein G biosensor, antigen at 1.13 nM in PBS
AAVXL32.1蛋白衣壳 [3] = assay: BLI (Fortebio), mAb002 on protein G biosensor, antigen at 0.0703 nM
AAVXL32.1蛋白衣壳 [4] = assay: BLI (Fortebio), mAb002 2 ug/ml on protein G biosensor, antigen at 0.2813 nM in PBS
AAVXL32.1蛋白衣壳 [5] = assay: BLI (Fortebio), mAb002 2 ug/ml on protein G biosensor, antigen at 0.0703 nM in PBS
AAVXL32.1蛋白衣壳 [6] = assay: BLI (Fortebio), mAb002 on protein G biosensor, antigen at 0.1406 nM
AAVXL32.1蛋白衣壳 [7] = assay: BLI (Fortebio), mAb002 2 ug/ml on protein G biosensor, antigen at 0.5625 nM in PBS
AAVXL32.1蛋白衣壳 [8] = assay: BLI (Fortebio), mAb002 2 ug/ml on protein G biosensor, antigen at 2.25 nM in PBS
AAVXL32.1蛋白衣壳 [9] = assay: BLI (Fortebio), mAb002 on protein G biosensor, antigen at 2.25 nM
AAVXL32.1蛋白衣壳 [10] = assay: BLI (Fortebio), mAb002 on protein G biosensor, antigen at 0.5625 nM
AAVXL32.1蛋白衣壳 [11] = assay: BLI (Fortebio), mAb002 on protein G biosensor, antigen at 1.13 nM
AAVXL32.1蛋白衣壳 [12] = assay: BLI (Fortebio), mAb002 on protein G biosensor, antigen at 0.2813 nM

B1: mAb002抗体 (antibody, V domains shown)
VH: QVQLQQPGAELVRPGTSVKLSCKASGYTFISYWMHWVKQRPGQGLEWIGVIDPSDSYTNYNQKFKGKATLTVDTSSSTAYMQLSSLTSEDSAVYYCARYYYGSSRYFDVWGTGTTVTVSS
VL: YIQMTQTTSSLSASLGDRVTISCRASQDISNYLNWYQQKPDGTVKVLIYYTSRLHSGVPSRFSGSGSGTDYSLTISNLEQEDIATYFCQQSYTLPWTFGGGTKLEIK
响应 (AAVXL32.1蛋白衣壳 [1]): 0.701
响应 (AAVXL32.1蛋白衣壳 [2]): 4.83
Kd (AAVXL32.1蛋白衣壳 [3]): < 1 pM
koff (AAVXL32.1蛋白衣壳 [3]): < 1e-07 s⁻¹
kon (AAVXL32.1蛋白衣壳 [3]): 3.26e+06 M⁻¹ s⁻¹
响应 (AAVXL32.1蛋白衣壳 [4]): 1.4
响应 (AAVXL32.1蛋白衣壳 [5]): 0.338
Kd (AAVXL32.1蛋白衣壳 [6]): < 1 pM
koff (AAVXL32.1蛋白衣壳 [6]): < 1e-07 s⁻¹
kon (AAVXL32.1蛋白衣壳 [6]): 3.26e+06 M⁻¹ s⁻¹
响应 (AAVXL32.1蛋白衣壳 [7]): 2.68
响应 (AAVXL32.1蛋白衣壳 [8]): 5.91
Kd (AAVXL32.1蛋白衣壳 [9]): < 1 pM
koff (AAVXL32.1蛋白衣壳 [9]): < 1e-07 s⁻¹
kon (AAVXL32.1蛋白衣壳 [9]): 3.26e+06 M⁻¹ s⁻¹
Kd (AAVXL32.1蛋白衣壳 [10]): < 1 pM
koff (AAVXL32.1蛋白衣壳 [10]): < 1e-07 s⁻¹
kon (AAVXL32.1蛋白衣壳 [10]): 3.26e+06 M⁻¹ s⁻¹
Kd (AAVXL32.1蛋白衣壳 [11]): < 1 pM
koff (AAVXL32.1蛋白衣壳 [11]): < 1e-07 s⁻¹
kon (AAVXL32.1蛋白衣壳 [11]): 3.26e+06 M⁻¹ s⁻¹
Kd (AAVXL32.1蛋白衣壳 [12]): < 1 pM
koff (AAVXL32.1蛋白衣壳 [12]): < 1e-07 s⁻¹
kon (AAVXL32.1蛋白衣壳 [12]): 3.26e+06 M⁻¹ s⁻¹
